According to article PMC9087282, “The W-Acidic Motif of Histidine Kinase WalK Is Required for Signaling and Transcriptional Regulation in Streptococcus mutans” (Frontiers in Microbiology, 2022):

Legend:
[1] = molecular target: GST fusion protein with full-length S. aureus WalR (1–233) (Staphylococcus aureus NCTC8325) (UniProt Q2G2U6)
[2] = molecular target: S. mutans WalR full-length (Streptococcus mutans UA159); assay: ITC; MicroCal iTC200, 25°C; 500 μM WalK (196–450) WT or CTT mutant in the syringe, 20 μM full-length WalR in the cell; 20 mM Tris-HCl pH 8.0, 200 mM NaCl, 20% glycerol
[3] = molecular target: T1, S. aureus WalK (364–608) D605A (Staphylococcus aureus NCTC8325, UniProt Q2G2U4 364-608, D605A); assay: pull-down; GST-tagged WalR protein held on glutathione agarose beads, His-tagged WalK as prey, equal molar amounts (~3 μl of 50 μM each) in 1 ml of 20 mM Tris-HCl pH 8.0, 200 mM NaCl, 5% glycerol, 2 mM EDTA, 2 h at 4°C; SDS-PAGE stained with CBB; conditions: both partners purified
T1 construct: source: E. coli BL21 (DE3), purified (Ni-NTA, Superdex 200); not shown: His tag, N-terminal, kept
T1 sequence: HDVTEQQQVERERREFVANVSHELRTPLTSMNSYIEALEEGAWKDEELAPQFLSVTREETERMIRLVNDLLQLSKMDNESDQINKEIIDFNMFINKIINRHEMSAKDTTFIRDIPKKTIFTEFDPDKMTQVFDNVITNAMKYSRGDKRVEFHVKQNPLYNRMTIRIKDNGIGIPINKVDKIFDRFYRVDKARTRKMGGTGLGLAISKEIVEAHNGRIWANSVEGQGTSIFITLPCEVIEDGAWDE

[4] = molecular target: T2, S. aureus WalK (364–608) WT (Staphylococcus aureus NCTC8325, UniProt Q2G2U4 364-608); assay: as above; conditions: both partners purified
T2 construct: cloned in pET-His; source: E. coli BL21 (DE3), purified (Ni-NTA, Superdex 200); not shown: His tag, N-terminal, kept
T2 sequence (looked up): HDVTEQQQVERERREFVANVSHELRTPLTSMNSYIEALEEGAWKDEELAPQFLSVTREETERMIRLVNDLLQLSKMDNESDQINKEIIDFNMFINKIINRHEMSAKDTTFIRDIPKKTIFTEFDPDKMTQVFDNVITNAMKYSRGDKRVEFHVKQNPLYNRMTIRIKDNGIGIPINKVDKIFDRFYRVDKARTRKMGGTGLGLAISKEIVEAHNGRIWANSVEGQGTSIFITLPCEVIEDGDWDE

WalR DBD = WalR DBD (Streptococcus mutans UA159, UniProt Q93MY4 129-235); assay: EMSA; 20 uM DNA; complex released by WalK 196-450 (W443A and delta-tail WalK compete less); conditions: protein: recombinant; chain copies: 2
WalK (196-450) = WalK (196-450) (Streptococcus mutans UA159, UniProt Q8DT64 196-450); assay: EMSA; conditions: protein: recombinant; tags: N-terminal His
WalR full-length = WalR full-length (Streptococcus mutans UA159, UniProt Q93MY4 1-235); assay: EMSA; 20 uM DNA; complex released by increasing WalK 196-450; conditions: protein: recombinant; chain copies: 2

Molecule: S. aureus WalK (364–608) W606A (from UniProt Q2G2U4 364-608) (domain or fragment)
- phosphotransferase activity of S. aureus WalK (364–608) with WalR (loss of phospho-WalK, at 30 min) [1]: 2 ×

Molecule: S. mutans WalK (196–450) WT (domain or fragment)
- Kd [2]: 1.21 µM

Molecule: S. aureus WalK (364–608) D607A (from UniProt Q2G2U4 364-608) (domain or fragment)
- phosphotransferase activity of S. aureus WalK (364–608) with WalR (loss of phospho-WalK, at 30 min) [1]: 2 ×

B1: GST fusion protein with full-length S. aureus WalR (1–233) (natural protein, Staphylococcus aureus NCTC8325, UniProt Q2G2U6 1-233, looked up)
chain: MARKVVVVDDEKPIADILEFNLKKEGYDVYCAYDGNDAVDLIYEEEPDIVLLDIMLPGRDGMEVCREVRKKYEMPIIMLTAKDSEIDKVLGLELGADDYVTKPFSTRELIARVKANLRRHYSQPAQDTGNVTNEITIKDIVIYPDAYSIKKRGEDIELTHREFELFHYLSKHMGQVMTREHLLQTVWGYDYFGDVRTVDVTIRRLREKIEDDPSHPEYIVTRRGVGYFLQQHE
notes: cloned in pET-GST; also called GST-WalR; source: E. coli BL21 (DE3), purified (glutathione agarose, Superdex 200); not shown: GST, N-terminal, kept
- binding result [3]: binds
- binding result [4]: binds

B2: gtfC promoter 25-mer (dsDNA)
DNA 1: GTTTGTTATAAAAGTGTTACAATAC
DNA 2: GTATTGTAACACTTTTATAACAAAC
- binding result (WalR DBD): binds
- binding result (WalK (196-450)): no binding
- binding result (WalR full-length): binds
